Tests used:
Experiment in all cases: multimer staining
[1] = target: T1, NL63 spike protein peptide on HLA-A*24:02 (human)
T1 peptide: NYIKWPWWVW

[2] = target: T2, SARS-CoV-2 spike protein (SPIKE) peptide on HLA-A*23:01 (human)
T2 peptide: QYIKWPWYIW

[3] = target: T3, HKU1 spike protein peptide on HLA-A*24:02 (human)
T3 peptide: MYVKWPWYVW

[4] = target: T4, OC43 spike protein peptide on HLA-A*24:02 (human)
T4 peptide: YYVKWPWYVW

[5] = target: T5, SARS-CoV-1 spike protein peptide on HLA-A*24:02 (human)
T5 peptide: QYIKWPWYVW

[6] = target: T6, 229E spike protein peptide on HLA-A*24:02 (human)
T6 peptide: TYIKWPWWVW

[7] = target: T7, SARS-CoV-2 spike protein (SPIKE) peptide on HLA-A*24:02 (human)
T7 peptide: QYIKWPWYIW

Measured: binding result

B1: TCRQYI (TCR)
alpha TRAV20*01 TRAJ32*01 CDR3: CAALNYGGATNKLIF
beta TRBV4-3*01 TRBJ2-7*01 CDR3: CASSPSGGAYEQYF
recognises: all assays above
